Target: FGFR1 (UniProt P16092)
Test: co-IP, Nf2-Flag mutants with FGFR1-HA
Conditions: reference: wild-type Nf2

binding against the reference (sites S315) | binding against the reference (sites S518) | Substance
lost |  | Nf2 (Merlin) (from UniProt P46662) S315A
 | lost | Nf2 (Merlin) (from UniProt P46662) S518A

Reference: paper PMC12487865
